Patent US20190300613A1 (TUSK THERAPEUTICS, published 2019)

What was measured:
[1] = target: T1, recombinant human CD25 his tagged (human, UniProt P01589 22-240); assay: SPR, Biacore 2000: IgG1 captured on the chip, rhCD25-his tag as analyte
T1 construct: also called rhCD25; rhCD25-his tag; not shown: His tag
T1 sequence: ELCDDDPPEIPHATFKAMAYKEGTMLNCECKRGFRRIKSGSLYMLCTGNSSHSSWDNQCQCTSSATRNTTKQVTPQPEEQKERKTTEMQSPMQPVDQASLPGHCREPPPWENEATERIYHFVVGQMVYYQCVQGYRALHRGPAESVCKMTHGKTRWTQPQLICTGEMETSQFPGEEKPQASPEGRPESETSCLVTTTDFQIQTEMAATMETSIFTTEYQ

[2] = target: T2, human CD25 expressed on cells (human, UniProt P01589 22-272); assay: flow cytometry on CD3/CD28 bead activated human Pan T cells, gated on CD8+ T cells
T2 construct: Endogenous CD25 on human cell lines and primary cells
T2 sequence: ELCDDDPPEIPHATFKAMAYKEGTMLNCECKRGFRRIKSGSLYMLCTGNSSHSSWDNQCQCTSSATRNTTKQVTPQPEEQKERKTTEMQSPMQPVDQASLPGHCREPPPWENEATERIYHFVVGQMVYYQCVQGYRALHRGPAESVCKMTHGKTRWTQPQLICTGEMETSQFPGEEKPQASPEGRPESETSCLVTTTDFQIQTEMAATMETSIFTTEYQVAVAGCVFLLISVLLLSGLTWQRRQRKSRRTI
Method: (§1) Binding to CD25 expressing activated human and Cynomolgus monkey PMBC was examined by staining test articles (anti-CD25 primary antibodies) with 20 μg/ml antibodies followed by semi-log dilution series (7-point) for 30 minutes on ice. This was followed by staining with a secondary antibody (rabbit anti-human Fcg F(ab′)2-(Jackson ImmunoResearch)) concentration of 5 μg/ml for 30 minutes on ice. All samples were stained in triplicates. To minimize cross-linking induced cell death mediated by binding of the secondary antibody, cell lines were examined in staining cohorts of 4 test articles at a time. Live lymphocytes were gated using FSC vs SSC parameters by flow cytometry during sample acquisition. Mean fluorescence intensity (MFI) of gated CD4⁺ and CD8⁺ T cell subsets were plotted on an XY chart, graphing MFI against the log of the concentration, and the data fit to a non-linear regression curve from which the EC50 was calculated.

[3] = target: T3, human CD25 antigen, Sino Biologicals cat no. 10165-H08H (~20% dimer) (human, UniProt P01589 22-213); assay: SPR, Biacore T200, antibody captured by anti-human Fab on CM5, CD25 as analyte, Two State Reaction fit; column printed as 'Binding strength'; Sino Biological CD25 (~20% dimer), Two State Reaction fit
T3 construct: Bought protein; also called Sino biological (~20% dimer)
T3 sequence: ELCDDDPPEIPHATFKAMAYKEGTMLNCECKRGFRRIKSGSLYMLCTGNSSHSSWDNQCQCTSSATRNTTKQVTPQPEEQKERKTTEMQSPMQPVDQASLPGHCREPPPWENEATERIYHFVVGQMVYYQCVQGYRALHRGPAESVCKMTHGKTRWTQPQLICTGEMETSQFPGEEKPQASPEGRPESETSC
From the text: (§2) Binding of CD25 antibodies to human CD25 antigen was investigated by surface plasmon resonance using a BIACORE T200 instrument (GE Healthcare).
(§3) For calculation of KD and kinetic parameters Biacore provided fitting models were used to obtain optimal curve fitting results. The 1:1 Langmuir fit was used for P1AA5872 and the Two State Kinetic fitting for CD25 from Sino Biologicals and R&D Systems.

[4] = target: T1, recombinant human CD25 his tagged; assay: SPR, Biacore 2000, IgG captured by anti-human antibody on CM5, rhCD25-His as analyte, two state reaction fit
Method: Anti-human antibody was initially immobilised across all flow cells in analysis buffer (pH 7.4, 10 mM HEPES, 150 mM NaCl, 3 mM EDTA, 0.05% Tween 20) to an RU of between 12,000-14,000 over 10 minutes. […] Dissociation was performed in analysis buffer over 10 minutes. Regeneration steps between sample concentrations were performed in 10 mM Glycin pH1.7 for 10 minutes. A flow rate of 25 μl/min was maintained throughout the process. Kinetics data were fit using a global two state reaction conformational change analysis software provided by Biacore with reference subtraction.

[5] = target: T2, human CD25 expressed on cells; assay: flow cytometry on CD3/CD28 bead activated human Pan T cells, gated on CD4+ T cells
Method: as §1

[6] = target: T4, inhouse produced monomeric human CD25 antigen (P1AA5872) (human, UniProt P01589 22-240, limits assumed); assay: SPR, Biacore T200, antibody captured by anti-human Fab on CM5, monomeric CD25 as analyte, 1:1 Langmuir fit; column printed as 'Binding strength'
T4 construct: also called Inhouse (0% dimer)
T4 sequence: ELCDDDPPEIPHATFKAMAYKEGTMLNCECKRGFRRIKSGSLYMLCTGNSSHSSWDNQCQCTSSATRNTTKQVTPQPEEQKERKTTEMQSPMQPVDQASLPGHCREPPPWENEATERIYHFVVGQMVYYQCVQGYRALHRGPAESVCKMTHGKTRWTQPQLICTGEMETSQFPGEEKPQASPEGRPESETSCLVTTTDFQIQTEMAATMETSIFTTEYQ
From the text: as §2, §3

[7] = target: T1, recombinant human CD25 his tagged; assay: BLI, ForteBio Octet Red96, IgG on AHC sensors, rhCD25-His in solution, global 1:1 fit
Method: Sensors were equilibrated off-line in assay buffer for 10 min and then monitored on-line for 60 seconds for baseline establishment. […] Then, 1:3 serial dilutions (from 1 uM to 4 nM) of recombinant human CD25 HIS tagged was associated to the loaded IgG for 10 min. Afterwards they were transferred to assay buffer for 6.6 min for off-rate measurement. Kinetics data were fit using a global 1:1 binding model in the ForteBio Data Analysis Software 9.0 with reference subtraction.

[8] = target: T5, human CD25 antigen, R&D Systems cat no. 223-2A/CF (~10% dimer) (human, UniProt P01589 22-213, limits assumed); assay: SPR, Biacore T200, antibody captured by anti-human Fab on CM5, CD25 as analyte, Two State Reaction fit; column printed as 'Binding strength'
T5 construct: Bought protein; also called R&D Systems (~10% dimer)
T5 sequence: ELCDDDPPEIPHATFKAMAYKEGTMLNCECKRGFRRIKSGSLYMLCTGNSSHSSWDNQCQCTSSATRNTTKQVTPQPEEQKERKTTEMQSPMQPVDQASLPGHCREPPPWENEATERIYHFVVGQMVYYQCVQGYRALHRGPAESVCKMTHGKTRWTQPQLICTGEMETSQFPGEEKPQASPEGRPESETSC
From the text: as §2, §3

[9] = target: T1, recombinant human CD25 his tagged; assay: SPR, Biacore 2000: IgG1 captured on the chip, rhCD25-his tag as analyte; remark: listed apart in the source
[10] = target: T1, recombinant human CD25 his tagged; assay: as above; remark: listed apart in the source
[11] = target: T1, recombinant human CD25 his tagged; assay: as above; remark: listed apart in the source
[12] = target: T1, recombinant human CD25 his tagged; assay: as above; remark: listed apart in the source

B1: aCD25-a-646-m2 (antibody, IgG1, V domains shown)
VH: QVQLVESGGGLVQPGGSLRLSCAASGFTFPSYGMHWVRQAPGKGLEWVAVIWYDAINKYYADSVKGRFTISRDNSKNTLYLQMNSLRAEDTAVYYCARDLGYGDYAAHDYWGQGTLVTVSS
VL: DIQMTQSPSTLSASVGDRVTITCRASQSISSWLAWYQQKPGKAPKLLIYKASSLESGVPSRFSGSGSGTEFTLTISSLQPDDFATYYCQQHNTHPYTFGGGTKVEIK
- Kd [1]: 0.36 nM

B2: aCD25-a-646 (antibody, V domains shown)
VH: QVQLVESGGGVVQPGRSLRLSCAASGFTFSSYGMHWVRQAPGKGLEWVAVIWYDGSNKGYADSVKGRFTISRDNSKNTLYLQMNSLRAEDTAVYYCARDLGYGDYAAHDYWGQGTLVTVSS
VL: DIQMTQSPSTLSASVGDRVTITCRASQSISSWLAWYQQKPGKAPKLLIYKASSLESGVPSRFSGSGSGTEFTLTISSLQPDDFATYYCQQHNTHPYTFGGGTKVEIK
notes: also called parental clone
- EC50 (read off the curve) [2]: ~0.2 µg/mL
- Kd [3]: 8.5 nM
- Kd [4]: 3.8 nM
- EC50 (read off the curve) [5]: ~0.2 µg/mL
- Kd [6]: 77 nM
- Kd [7]: 3.65 nM
- Kd [8]: 15 nM

B3: aCD25-a-646-m5 (antibody, IgG1, V domains shown)
VH: EVQLLESGGGLVQPGGSLRLSCAASGFTFPSYGMHWVRQAPGKGLEWVAVIWYDALNKYYADSVKGRFTISRDNSKNTLYLQMNSLRAEDTAVYYCARDLGYGDYAAHDYWGQGTLVTVSS
VL: DIQMTQSPSTLSASVGDRVTITCRASQSISSWLAWYQQKPGKAPKLLIYKASSLESGVPSRFSGSGSGTEFTLTISSLQPDDFATYYCQQHNTHPYTFGGGTKVEIK
- Kd [9]: 0.31 nM

B4: aCD25-a-646-m1 (antibody, IgG1, V domains shown)
VH: EVQLVESGGGLVKPGGSLRLSCAASGFTFASYGMHWVRQAPGKGLEWVAVIWYDASTKYYADSVKGRFTISRDNSKNTLYLQMNSLRAEDTAVYYCARDLGYGDYAAHDYWGQGTLVTVSS
VL: DIQMTQSPSTLSASVGDRVTITCRASQSISSWLAWYQQKPGKAPKLLIYKASSLESGVPSRFSGSGSGTEFTLTISSLQPDDFATYYCQQHNTHPYTFGGGTKVEIK
- Kd [10]: 1.43 nM

B5: aCD25-a-646-m3 (antibody, IgG1, V domains shown)
VH: QVQLVESGGGVVQPGRSLRLSCAASGFTFPSYGMHWVRQAPGKGLEWVAVIWYDAVNKYYADSVKGRFTISRDNSKNTLYLQMNSLRAEDTAVYYCARDLGYGDYAAHDYWGQGTLVTVSS
VL: DIQMTQSPSTLSASVGDRVTITCRASQSISSWLAWYQQKPGKAPKLLIYKASSLESGVPSRFSGSGSGTEFTLTISSLQPDDFATYYCQQHNTHPYTFGGGTKVEIK
- Kd [11]: 0.42 nM

B6: aCD25-a-646-m4 (antibody, IgG1, V domains shown)
VH: QVQLVESGGGVVQPGRSLRLSCAASGFTFPSYGMHWVRQAPGKGLEWVAVIWYDASTKYYADSVKGRFTISRDNSKNTLYLQMNSLRAEDTAVYYCARDLGYGDYAAHDYWGQGTLVTVSS
VL: DIQMTQSPSTLSASVGDRVTITCRASQSISSWLAWYQQKPGKAPKLLIYKASSLESGVPSRFSGSGSGTEFTLTISSLQPDDFATYYCQQHNTHPYTFGGGTKVEIK
- Kd [12]: 0.56 nM
